# Values of other authors in patent US20060234934A1, “Composition and Method for Selective Cytostasis” (priority 2005, published 2006).
# B1: EGF: Epidermal Growth Factor (protein, UniProt P01133 23-1207, looked up)
# Pro-epidermal growth factor: PQHWSCPEGTLAGNGNSTCVGPAPFLIFSHGNSIFRIDTEGTNYEQLVVDAGVSVIMDFHYNEKRIYWVDLERQLLQRVFLNGSRQERVCNIEKNVSGMAINWINEEVIWSNQQEGIITVTDMKGNNSHILLSALKYPANVAVDPVERFIFWSSEVAGSLYRADLDGVGVKALLETSEKITAVSLDVLDKRLFWIQYNREGSNSLICSCDYDGGSVHISKHPTQHNLFAMSLFGDRIFYSTWKMKTIWIANKHTGKDMVRINLHSSFVPLGELKVVHPLAQPKAEDDTWEPEQKLCKLRKGNCSSTVCGQDLQSHLCMCAEGYALSRDRKYCEDVNECAFWNHGCTLGCKNTPGSYYCTCPVGFVLLPDGKRCHQLVSCPRNVSECSHDCVLTSEGPLCFCPEGSVLERDGKTCSGCSSPDNGGCSQLCVPLSPVSWECDCFPGYDLQLDEKSCAASGPQPFLLFANSQDIRHMHFDGTDYGTLLSQQMGMVYALDHDPVENKIYFAHTALKWIERANMDGSQRERLIEEGVDVPEGLAVDWIGRRFYWTDRGKSLIGRSDLNGKRSKIITKENISQPRGIAVHPMAKRLFWTDTGINPRIESSSLQGLGRLVIASSDLIWPSGITIDFLTDKLYWCDAKQSVIEMANLDGSKRRRLTQNDVGHPFAVAVFEDYVWFSDWAMPSVMRVNKRTGKDRVRLQGSMLKPSSLVVVHPLAKPGADPCLYQNGGCEHICKKRLGTAWCSCREGFMKASDGKTCLALDGHQLLAGGEVDLKNQVTPLDILSKTRVSEDNITESQHMLVAEIMVSDQDDCAPVGCSMYARCISEGEDATCQCLKGFAGDGKLCSDIDECEMGVPVCPPASSKCINTEGGYVCRCSEGYQGDGIHCLDIDECQLGEHSCGENASCTNTEGGYTCMCAGRLSEPGLICPDSTPPPHLREDDHHYSVRNSDSECPLSHDGYCLHDGVCMYIEALDKYACNCVVGYIGERCQYRDLKWWELRHAGHGQQQKVIVVAVCVVVLVMLLLLSLWGAHYYRTQKLLSKNPKNPYEESSRDVRSRRPADTEDGMSSCPQPWFVVIKEHQDLKNGGQPVAGEDGQAADGSMQPTSWRQEPQLCGMGTEQGCWIPVSSDKGSCPQVMERSFHMPSYGTQTLEGGVEKPHSLLSANPLWQQRALDPPHQMELTQ
# modifications: Pro-epidermal growth factor
# Tested on: human embryonic palatal mesenchymal cells
molecule,measurement,value
B1,stimulation of incorporation of 3[H]-thymidine into newly synthesized DNA,a little more than twofold
